In article PMC4997581 one finds pUL97 co-IP Western blot signal relative to cyclin B1 data, which are given here for two molecules.

In this experiment the target is Cyclin B1 (human (endogenous in 293T and HFF)), P14635. Kind of experiment: co-IP. The settings on record: remark: other sources report otherwise.
Sequence of Cyclin B1 (human (endogenous in 293T and HFF)), P14635 (P14635 whole entry): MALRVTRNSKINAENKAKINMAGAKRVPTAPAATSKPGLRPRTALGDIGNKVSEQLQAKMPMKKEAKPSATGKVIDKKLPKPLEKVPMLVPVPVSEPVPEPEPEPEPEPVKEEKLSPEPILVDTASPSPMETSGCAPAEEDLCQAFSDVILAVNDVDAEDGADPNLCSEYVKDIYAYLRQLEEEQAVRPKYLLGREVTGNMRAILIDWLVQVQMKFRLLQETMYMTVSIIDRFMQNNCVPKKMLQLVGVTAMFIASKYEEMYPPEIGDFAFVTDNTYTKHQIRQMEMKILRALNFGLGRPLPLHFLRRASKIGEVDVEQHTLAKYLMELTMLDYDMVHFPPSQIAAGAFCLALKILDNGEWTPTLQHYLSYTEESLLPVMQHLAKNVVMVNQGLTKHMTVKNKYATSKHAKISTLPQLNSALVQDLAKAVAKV

B1: HCMV protein kinase pUL97, Flag-tagged (pUL97-Flag), P16788 1-707 (natural protein)
chain: MSSALRSRARSASLGTTTQGWDPPPLRRPSRARRRQWMREAAQAAAQAAVQAAQAAAAQVAQAHVDENEVVDLMADEAGGGVTTLTTLSSVSTTTVLGHATFSACVRSDVMRDGEKEDAASDKENLRRPVVPSTSSRGSAASGDGYHGLRCRETSAMWSFEYDRDGDVTSVRRALFTGGSDPSDSVSGVRGGRKRPLRPPLVSLARTPLCRRRVGGVDAVLEENDVELRAESQDSAVASGPGRIPQPLSGSSGEESATAVEADSTSHDDVHCTCSNDQIITTSIRGLTCDPRMFLRLTHPELCELSISYLLVYVPKEDDFCHKICYAVDMSDESYRLGQGSFGEVWPLDRYRVVKVARKHSETVLTVWMSGLIRTRAAGEQQQPPSLVGTGVHRGLLTATGCCLLHNVTVHRRFHTDMFHHDQWKLACIDSYRRAFCTLADAIKFLNHQCRVCHFDITPMNVLIDVNPHNPSEIVRAALCDYSLSEPYPDYNERCVAVFQETGTARRIPNCSHRLRECYHPAFRPMPLQKLLICDPHARFPVAGLRRYCMSELSALGNVLGFCLMRLLDRRGLDEVRMGTEALLFKHAGAACRALENGKLTHCSDACLLILAAQMSYGACLLGEHGAALVSHTLRFVEAKMSSCRVRAFRRFYHECSQTMLHEYVRKNVERLLATSDGLYLYNAFRRTTSIICEEDLDGDCRQLFPE
Turning to B1, the pUL97 co-IP Western blot signal relative to cyclin B1 came out at 100%.

B2: pUL97 stably expressed in transduced HFFs, P16788 1-707 (natural protein)
chain: MSSALRSRARSASLGTTTQGWDPPPLRRPSRARRRQWMREAAQAAAQAAVQAAQAAAAQVAQAHVDENEVVDLMADEAGGGVTTLTTLSSVSTTTVLGHATFSACVRSDVMRDGEKEDAASDKENLRRPVVPSTSSRGSAASGDGYHGLRCRETSAMWSFEYDRDGDVTSVRRALFTGGSDPSDSVSGVRGGRKRPLRPPLVSLARTPLCRRRVGGVDAVLEENDVELRAESQDSAVASGPGRIPQPLSGSSGEESATAVEADSTSHDDVHCTCSNDQIITTSIRGLTCDPRMFLRLTHPELCELSISYLLVYVPKEDDFCHKICYAVDMSDESYRLGQGSFGEVWPLDRYRVVKVARKHSETVLTVWMSGLIRTRAAGEQQQPPSLVGTGVHRGLLTATGCCLLHNVTVHRRFHTDMFHHDQWKLACIDSYRRAFCTLADAIKFLNHQCRVCHFDITPMNVLIDVNPHNPSEIVRAALCDYSLSEPYPDYNERCVAVFQETGTARRIPNCSHRLRECYHPAFRPMPLQKLLICDPHARFPVAGLRRYCMSELSALGNVLGFCLMRLLDRRGLDEVRMGTEALLFKHAGAACRALENGKLTHCSDACLLILAAQMSYGACLLGEHGAALVSHTLRFVEAKMSSCRVRAFRRFYHECSQTMLHEYVRKNVERLLATSDGLYLYNAFRRTTSIICEEDLDGDCRQLFPE
In the case of B2, the pUL97 co-IP Western blot signal relative to cyclin B1 is 100%.
